Laboratory results published in patent US20250276092A1 (Regeneron, published 2025).

B1: 30027P2 (antibody, human IgG4 S228P, kappa, V domains shown)
VH: EVQLVESGGGLVQPGGSLRLSCAASGFTFSSYAMNWVRQAPGKGLEWVSIISGTIGKTYYADSVKGRFTISRDNSKNTLYLQMNSLRGEDTAVYYCAKDTERDITGSPFDYWGQGTLVTVSS
VL: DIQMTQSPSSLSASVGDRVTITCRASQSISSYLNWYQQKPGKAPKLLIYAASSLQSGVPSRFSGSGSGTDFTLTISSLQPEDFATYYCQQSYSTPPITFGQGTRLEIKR
notes: Parental bivalent anti-CD40 mAb; also called H4sH30027P2
B2: REGN16431 (bispecific antibody, human IgG4 S228P, kappa)
heavy 1: QLQLQESGPGLVRPSETLSLTCSVSGASMNTNNYYWGWIRQPPGKGLEWIGSGYYNGNTYYNPSLKSRVTISVDTSKNQFSLKLNSVTAADTAVYYCARQTPPRIIGSPNIWGQGTMVTVSSASTKGPSVFPLAPCSRSTSESTAALGCLVKDYFPEPVTVSWNSGALTSGVHTFPAVLQSSGLYSLSSVVTVPSSSLGTKTYTCNVDHKPSNTKVDKRVESKYGPPCPPCPAPPVAGPSVFLFPPKPKDTLMISRTPEVTCVVVDVSQEDPEVQFNWYVDGVEVHNAKTKPREEQFNSTYRVVSVLTVLHQDWLNGKEYKCKVSNKGLPSSIEKTISKAKGQPREPQVYTLPPSQEEMTKNQVSLTCLVKGFYPSDIAVEWESNGQPENNYKTTPPVLDSDGSFFLYSRLTVDKSRWQEGNVFSCSVMHEALHNHYTQKSLSLSLGK
heavy 2: EVQLVESGGGLVQPGGSLRLSCAASGFTFGSYGMAWVRQAPGKGLEWVSAISGSGDYTNYADSVKRRFTISRDNSKNTLYLQMSSLRAEDTAVYYCAKEKTGTTGYLYSGMDVWGQGTTVTVSSASTKGPSVFPLAPCSRSTSESTAALGCLVKDYFPEPVTVSWNSGALTSGVHTFPAVLQSSGLYSLSSVVTVPSSSLGTKTYTCNVDHKPSNTKVDKRVESKYGPPCPPCPAPPVAGPSVFLFPPKPKDTLMISRTPEVTCVVVDVSQEDPEVQFNWYVDGVEVHNAKTKPREEQFNSTYRVVSVLTVLHQDWLNGKEYKCKVSNKGLPSSIEKTISKAKGQPREPQVYTLPPSQEEMTKNQVSLTCLVKGFYPSDIAVEWESNGQPENNYKTTPPVLDSDGSFFLYSRLTVDKSRWQEGNVFSCSVMHEALHNRFTQKSLSLSPGK
light: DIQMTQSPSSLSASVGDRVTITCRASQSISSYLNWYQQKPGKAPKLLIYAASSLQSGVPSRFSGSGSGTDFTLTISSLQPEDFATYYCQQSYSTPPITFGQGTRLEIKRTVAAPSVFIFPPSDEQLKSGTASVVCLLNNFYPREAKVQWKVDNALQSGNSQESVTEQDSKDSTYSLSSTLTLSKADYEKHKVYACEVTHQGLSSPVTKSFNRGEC
B3: REGN16432 (bispecific antibody, human IgG4 S228P, kappa)
heavy 1: EVQLVESGGGLVQPGGSLRLSCAASGFTFSSYAMNWVRQAPGKGLEWVSIISGTIGKTYYADSVKGRFTISRDNSKNTLYLQMNSLRGEDTAVYYCAKDTERDITGSPFDYWGQGTLVTVSSASTKGPSVFPLAPCSRSTSESTAALGCLVKDYFPEPVTVSWNSGALTSGVHTFPAVLQSSGLYSLSSVVTVPSSSLGTKTYTCNVDHKPSNTKVDKRVESKYGPPCPPCPAPPVAGPSVFLFPPKPKDTLMISRTPEVTCVVVDVSQEDPEVQFNWYVDGVEVHNAKTKPREEQFNSTYRVVSVLTVLHQDWLNGKEYKCKVSNKGLPSSIEKTISKAKGQPREPQVYTLPPSQEEMTKNQVSLTCLVKGFYPSDIAVEWESNGQPENNYKTTPPVLDSDGSFFLYSRLTVDKSRWQEGNVFSCSVMHEALHNHYTQKSLSLSLGK
heavy 2: B2 heavy 2
light: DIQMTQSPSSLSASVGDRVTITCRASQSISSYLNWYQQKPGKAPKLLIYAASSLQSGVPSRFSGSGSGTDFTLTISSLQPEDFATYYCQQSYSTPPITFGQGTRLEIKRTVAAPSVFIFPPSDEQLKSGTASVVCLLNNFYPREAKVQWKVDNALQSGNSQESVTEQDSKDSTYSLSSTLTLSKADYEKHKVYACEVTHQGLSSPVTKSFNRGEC

Legend:
[1] = target: T1, mouse CD40 extracellular domain expressed with a C-terminal myc-myc-hexahistidine tag (mouse); assay: SPR 37C, captured mAb
T1 construct: also called mCD40-MMH; REGN3098
T1 chain: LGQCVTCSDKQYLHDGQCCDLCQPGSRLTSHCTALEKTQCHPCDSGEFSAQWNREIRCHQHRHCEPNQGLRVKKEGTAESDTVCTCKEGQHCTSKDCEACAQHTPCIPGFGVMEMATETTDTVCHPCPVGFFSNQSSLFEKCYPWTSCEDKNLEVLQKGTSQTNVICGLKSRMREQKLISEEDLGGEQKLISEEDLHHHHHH
Description: (§1) The equilibrium dissociation constants (KD) for anti-CD40 bivalent and bispecific monoclonal antibodies (mAbs) were determined using a real-time surface plasmon resonance (SPR)-based Biacore 4000 biosensor. All binding studies were performed in 10 mM HEPES, 150 mM NaCl, 3 mM EDTA, and 0.05% v/v surfactant Tween-20, pH 7.4 (HBS-ET) running buffer at 25° C. and 37° C. The Biacore CM5 sensor surface was first derivatized by amine coupling with a monoclonal mouse anti-human Fc antibody (REGN2567) to capture anti-CD40 bivalent parental and anti-CD40×CD40 bispecific antibodies. Different concentrations of CD40 reagents, human CD40 extracellular domain expressed with a C-terminal myc-myc-hexahistidine tag (“hCD40-MMH”; REGN3094; SEQ ID NO: 53), monkey CD40 extracellular domain expressed with a C-terminal myc-myc-hexahistidine tag (“mfCD40-MMH”; REGN3097; SEQ ID NO: 54), and mouse CD40 extracellular domain expressed with a C-terminal myc-myc-hexahistidine tag (“mCD40-MMH”; REGN3098; SEQ ID NO: 55), at concentrations ranging from 3.7 nM to 100 nM or 3.3 nM to 90 nM in a series of 3-fold dilutions prepared in HBS-ET running buffer were injected at a flow rate of […] for 4 minutes or […] for 5 minutes. The dissociation of different CD40 reagents bound to anti-CD40 bivalent parental and anti-CD40×CD40 bispecific antibodies was monitored for 10 minutes in HBS-ET running buffer. At the end of each cycle, the anti-CD40 bivalent parental and anti-CD40×CD40 bispecific antibodies capture surface was regenerated using a 12 sec injection of 20 mM H₃PO₄.
(§2) The association rate (ka) and dissociation rate (kd) were determined by fitting the real-time binding sensorgrams to a 1:1 binding model with mass transport limitation using Scrubber 2.0c curve-fitting software. Binding dissociation equilibrium constant (KD) and dissociative half-life (t½) were calculated from the kinetic rates as: KD (M)=kd/kₐ, and t_{1/2} (min)=[ln(2)/(60*kd)].

[2] = target: T2, human CD40 extracellular domain expressed with a C-terminal myc-myc-hexahistidine tag (human); assay: SPR 37C, captured mAb
T2 construct: also called hCD40-MMH; hCD40-mmH
Description: as §1, §2

[3] = target: T1, mouse CD40 extracellular domain …; assay: SPR 25C, captured mAb
Description: as §1, §2

[4] = target: T3, monkey CD40 extracellular domain expressed with a C-terminal myc-myc-hexahistidine tag (monkey); assay: SPR 25C, captured mAb
T3 construct: also called mfCD40-MMH; REGN3097
T3 chain: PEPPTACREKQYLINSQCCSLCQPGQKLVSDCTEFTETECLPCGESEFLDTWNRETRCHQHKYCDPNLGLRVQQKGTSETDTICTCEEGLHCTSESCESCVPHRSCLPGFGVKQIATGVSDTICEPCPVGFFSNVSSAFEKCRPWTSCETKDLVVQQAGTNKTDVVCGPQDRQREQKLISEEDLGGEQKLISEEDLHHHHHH
Description: as §1, §2

[5] = target: T2, human CD40 extracellular domain …; assay: SPR 25C, captured mAb
Description: as §1, §2

[6] = target: T4, human CD40 expressed on cells (human, UniProt P25942 21-277); assay: cell-based or functional assay
[7] = target: T4, human CD40 expressed on cells; assay: cell-based or functional assay; remark: listed apart in the source
[8] = target: T4, human CD40 expressed on cells; assay: cell-based or functional assay; remark: listed apart in the source
[9] = target: T4, human CD40 expressed on cells; assay: cell-based or functional assay; remark: listed apart in the source
[10] = target: T2, human CD40 extracellular domain …; assay: ELISA, blocks 40 nM hCD40-mmH binding to coated 9His-hCD40L
Description: In the blocking assay, 9His-hCD40L was passively absorbed at a concentration of 5 μg/mL in PBS on a 96-well microtiter plate overnight at 4° C. […] In a separate 96-well microtiter plate, a fixed amount of 40 nM hCD40-mmH was pre-mixed with one of the following antibodies, at concentrations ranging from 977 pM to 1 μM in PBS+0.5% BSA: (1) anti-CD40×CD40 bispecific antibodies (REGN16431, REGN16432, REGN16634, and REGN16335); (2) parental anti-CD40 mAbs (bivalent antibodies comprising 2 fragment antigen-binding [Fab] arms identical to one of anti-CD40 Fab of anti-CD40×CD40 antibodies); (3) anti-CD40×Irrelevant antibodies (bivalent antibodies that incorporate one Fab arm identical to one of anti-CD40 Fab of anti-CD40×CD40 antibodies and another Fab arm specific to an irrelevant antigen); and (4) human IgG4 with Fc mutation isotype control antibodies (REGN7540 and REGN4513). The fixed concentration of hCD40-mmH was selected to be near the concentration (EC₅₀ value) that generated 50% of the maximal binding to the plate-adhered 9His-hCD40L. After one-hour incubation, the antibody-antigen complexes were transferred to the microtiter plate coated with 9His-hCD40L. After one hour incubation at room temperature, the plates were washed, and plate-bound hCD40-mmH protein was detected with horseradish peroxidase (HRP) conjugated goat anti-c-Myc antibody. The plates were then developed using TMB substrate solution (BD Biosciences) according to the manufacturer's recommended procedure and the absorbance at 450 nm (OD₄₅₀) was measured on a SpectraMax i3× plate reader.
Binding data were analyzed using a sigmoidal (four-parameter logistic) dose-response model with GraphPad Prism™ software. […] The percent blocking of tested antibodies at the highest tested concentration ([…]) was calculated based on the formula shown below: […]
Target sequence in this assay (chain, as listed by the source limits assumed): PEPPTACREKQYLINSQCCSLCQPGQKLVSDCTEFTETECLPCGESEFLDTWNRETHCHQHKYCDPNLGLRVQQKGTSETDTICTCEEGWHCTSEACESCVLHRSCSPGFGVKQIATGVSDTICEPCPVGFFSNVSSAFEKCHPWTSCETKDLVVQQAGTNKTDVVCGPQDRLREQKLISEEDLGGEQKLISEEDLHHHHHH

[11] = target: T4, human CD40 expressed on cells; assay: cell-based or functional assay; remark: listed apart in the source
[12] = target: T4, human CD40 expressed on cells; assay: cell-based or functional assay; remark: listed apart in the source

T4 sequence (P25942 21-277): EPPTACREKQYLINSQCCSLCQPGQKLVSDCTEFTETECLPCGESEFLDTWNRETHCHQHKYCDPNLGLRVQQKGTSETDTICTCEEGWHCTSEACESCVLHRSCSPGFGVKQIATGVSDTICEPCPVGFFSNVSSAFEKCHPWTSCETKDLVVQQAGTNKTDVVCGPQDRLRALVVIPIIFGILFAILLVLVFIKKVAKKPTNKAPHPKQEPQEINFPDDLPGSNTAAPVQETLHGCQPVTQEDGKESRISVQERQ

| Binder | 100 nM Ag Bound (RU) [2] [RU] | 100 nM Ag Bound (RU) [5] [RU] | Max % activation, NFkB-luc THP-1, no ligand [6] [%] | Max % inhibition, NFkB-luc THP-1, 10 nM hCD40L [6] [%] | Max % activation, NFkB-luc Ramos, no ligand [7] [%] | Max % inhibition, NFkB-luc Ramos, 500 pM hCD40L [7] [%] | IC50, NFkB-luc Raji, 900 pM hCD40L [8] [M] | Max % activation, NFkB-luc Raji, no ligand [8] [%] | Max % inhibition, NFkB-luc Raji, 900 pM hCD40L [8] [%] | % max blockade relative to no mAb, IL-10, B cells, donor 1 [9] [%] | % max blockade relative to no mAb, IL-10, B cells, donor 2 [9] [%] | % max blockade relative to no mAb, IL-10, B cells, donor 3 [9] [%] | % Blocking at highest mAb concentration [10] [%] | % max blockade relative to no mAb, IL-6, B cells, donor 1 [11] [%] | % max blockade relative to no mAb, IL-6, B cells, donor 2 [11] [%] | % max blockade relative to no mAb, IL-6, B cells, donor 3 [11] [%] | IC50, NFkB-luc THP-1, 10 nM hCD40L [6] [nM] | IC50, NFkB-luc Ramos, 500 pM hCD40L [7] [M] | % max blockade relative to no mAb, TNFa, B cells, donor 1 [12] [%] | % max blockade relative to no mAb, TNFa, B cells, donor 2 [12] [%] | other results |
| --- | --- | --- | --- | --- | --- | --- | --- | --- | --- | --- | --- | --- | --- | --- | --- | --- | --- | --- | --- | --- | --- |
| B1 | 66.5 | 62 | 2 | -61 | 8 | -130 | 8.95e-12 | 9 | 67 |  |  |  |  |  |  |  |  |  |  |  | 100 nM Ag Bound (RU) [1]: 0.2 RU; 100 nM Ag Bound (RU) [3]: 0.2 RU; 100 nM Ag Bound (RU) [4]: 63.1 RU; EC50 in the presence of CD40L (potentiation), NFkB-luc THP-1, 10 nM hCD40L [6]: 0.00251 nM; EC50 in the presence of CD40L (potentiation), NFkB-luc Ramos, 500 pM hCD40L [7]: 8.14e-12 M |
| B2 | 61.2 | 61.2 | 2 | 98 | 6 | 90 | 1.07e-10 | 13 | 82 | 80.7 | 86.9 | 89.3 | 93 | 84 | 92.7 | 92.7 | 0.287 | 8.54e-11 | 44.7 | 74.1 | % max blockade relative to no mAb, TNFa, B cells, donor 3 [12]: 70.4% |
| B3 | 56.6 | 56.6 | 6 | 97 | 4 | 94 | 1.02e-10 | 5 | 68 | 81.5 | 94.5 | 90.6 | 95 | 83.5 | 92 | 92 | 0.148 | 4.92e-11 | 53.5 | 68.4 | % max blockade relative to no mAb, TNFa, B cells, donor 3 [12]: 69.1% |
